Results from paper doi:10.1101/2022.01.21.477263.

Experiments:
Assay in all cases: crystal structure
[1] = molecular target: HIV-1 (M) CA R120 (arginine restored at CA position 120) (HIV-1 group M)
[2] = molecular target: HIV-1 (M-group) CA Q50Y, disulfide-stabilised hexamer construct (A14C, E45C, Q50Y, W184A, M185A) (HIV-1 group M)
[3] = molecular target: HIV-1 (O-group) CA, disulfide-stabilised hexamer construct (A14C, E45C, W185A, M186A) (HIV-1 group O)
[4] = molecular target: SIVcpz CA, disulfide-stabilised hexamer construct (P14C, E45C, W184A, M185A) (SIVcpz (SIVcpzPtt))
[5] = molecular target: SIVmac CA, disulfide-stabilised hexamer construct (P13C, E44C, W182A, M183A) (SIVmac)

HIV-1 (M) CA R120 (arginine restored at CA position 120) (natural protein)
stoichiometry N [1]: 6

HIV-1 (M-group) CA Q50Y, disulfide-stabilised hexamer construct (A14C, E45C, Q50Y, W184A, M185A) (natural protein)
stoichiometry N [2]: 6

HIV-1 (O-group) CA, disulfide-stabilised hexamer construct (A14C, E45C, W185A, M186A) (natural protein)
stoichiometry N [3]: 6

SIVcpz CA, disulfide-stabilised hexamer construct (P14C, E45C, W184A, M185A) (natural protein)
stoichiometry N [4]: 6

SIVmac CA, disulfide-stabilised hexamer construct (P13C, E44C, W182A, M183A) (natural protein)
stoichiometry N [5]: 6
